Holding throughout (conditions): other: capillary electrophoresis
Series [1] deals with WT Cu, Zn superoxide dismutase-1 (SOD1), recombinant human (UniProt P00441). In words: capillary electrophoresis; both homodimers as 4Zn-SOD1; 15 μM dimer each ([SOD1]total = 30 μM), followed over time; 10 mM potassium phosphate pH 7.4, CE at 22 °C, storage at 15 °C; KHet assumed from the fit extrapolated to t = 5000 min.
For series [2] the target is unchanged. In words: capillary electrophoresis; both homodimers apo (metal-free, disulfide intact), mixed at 15 μM dimer each ([SOD1]total = 30 μM), followed over time; 10 mM potassium phosphate pH 7.4, CE at 22 °C, storage at 15 °C; KHet assumed from the fit extrapolated to t = 5000 min.
Series [3] has the same target. In words: capillary electrophoresis; binder (first named) as 4Zn-SOD1, target (second named, WT or TD) as apo-SOD1; 15 μM dimer each ([SOD1]total = 30 μM), followed over time; 10 mM potassium phosphate pH 7.4, CE at 22 °C, storage at 15 °C; KHet assumed from the fit extrapolated to t = 5000 min.
Series [4] shares this target. Briefly: capillary electrophoresis; binder (first named) as apo-SOD1, target (second named, WT or TD) as 4Zn-SOD1; 15 μM dimer each ([SOD1]total = 30 μM), followed over time; 10 mM potassium phosphate pH 7.4, CE at 22 °C, storage at 15 °C; KHet assumed from the fit extrapolated to t = 5000 min.

Chain of triply deamidated SOD1 (modeled with N26D/N131D/N139D substitutions), recombinant human (chain, as listed by the source N26D N131D N139D): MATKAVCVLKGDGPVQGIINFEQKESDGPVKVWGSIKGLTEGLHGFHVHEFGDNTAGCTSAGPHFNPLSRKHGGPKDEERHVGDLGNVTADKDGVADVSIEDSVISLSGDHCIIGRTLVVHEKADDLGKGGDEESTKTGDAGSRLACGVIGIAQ
Chain of WT Cu, Zn superoxide dismutase-1 (SOD1), recombinant human (P00441 whole entry): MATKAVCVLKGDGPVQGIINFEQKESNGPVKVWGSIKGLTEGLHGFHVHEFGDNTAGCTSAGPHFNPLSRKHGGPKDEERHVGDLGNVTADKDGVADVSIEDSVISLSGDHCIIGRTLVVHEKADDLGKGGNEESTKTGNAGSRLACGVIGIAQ

On to “triply deamidated SOD1 (modeled with N26D/N131D/N139D substitutions), recombinant human”, for which the t30% (time to reach 30% heterodimer) was 339 min in series [1], 85.8 min in series [2], 297 min in series [3] and 188 min in series [4].
